Where no end group is shown, it is not given here.
What was measured:
G12C mutant KRAS = biological target: T1, G12C mutant KRAS (Homo sapiens, UniProt P01116, G12C); experiment: In vitro translation assay with streptavidin pull-down, KRAS G12C; type: binding; settings: 10 μM biotinylated pept-in, Western blot
T1 construct: made in house; host or cells: cell-free: PURExpress In Vitro Protein Synthesis Kit (New England Biolabs)
Method: (§1) In vitro translation assays were performed using the PURExpress® In Vitro Protein Synthesis Kit (New England Biolabs) according to the manufacturer's instructions. Briefly, linear DNA fragments containing T7 promotor and terminator sequences flanking the KRAS coding sequence were generated using PCR and purified using the MinElute PCR Purification Kit (Qiagen). 250 ng of linear DNA was subsequently used for the in vitro translation reaction, which was performed for 2 hours at 37° C. with shaking (1000 rpm). Indicated biotinylated pept-ins were mixed in the translation reactions from a 5 mM stock solution in 6M Urea to a final concentration of 10 μM. Upon completion of the translation reaction, biotinylated pept-ins were captured from the reaction mix using Streptavidin coated beads (Pierce) during 90 min at room temperature. Beads were next washed with TBS containing 0.1% Tween 20 and bound proteins were finally boiled off in 1×SDS loading dye (Bio-Rad) in TBS buffer. Proteins were resolved using Any kD 15-well Mini-PROTEAN gels (Bio-Rad) during SDS-PAGE and probed for KRAS after Western blotting using a mouse monoclonal KRAS-specific antibody (SC-30, Santa Cruz Biotechnology), which was detected with an HRP-coupled anti-mouse secondary antibody using chemiluminescence on a Bio-Rad Chemidoc MP imaging instrument. […]

G12V mutant KRAS = biological target: T2, G12V mutant KRAS (Homo sapiens, UniProt P01116, G12V); experiment: In vitro translation assay with streptavidin pull-down, KRAS G12V; type: binding; settings: 10 μM biotinylated pept-in, Western blot
T2 construct: made in house; host or cells: cell-free: PURExpress In Vitro Protein Synthesis Kit (New England Biolabs)
Method: In vitro translation assays were performed using the PURExpress® In Vitro Protein Synthesis Kit (New England Biolabs) according to the manufacturer's instructions. Briefly, linear DNA fragments containing T7 promotor and terminator sequences flanking the KRAS coding sequence were generated using PCR and purified using the MinElute PCR Purification Kit (Qiagen). 250 ng of linear DNA was subsequently used for the in vitro translation reaction, which was performed for 2 hours at 37° C. with shaking (1000 rpm). Indicated biotinylated pept-ins were mixed in the translation reactions from a 5 mM stock solution in 6M Urea to a final concentration of 10 μM. Upon completion of the translation reaction, biotinylated pept-ins were captured from the reaction mix using Streptavidin coated beads (Pierce) during 90 min at room temperature. Beads were next washed with TBS containing 0.1% Tween 20 and bound proteins were finally boiled off in 1×SDS loading dye (Bio-Rad) in TBS buffer. Proteins were resolved using Any kD 15-well Mini-PROTEAN gels (Bio-Rad) during SDS-PAGE and probed for KRAS after Western blotting using a mouse monoclonal KRAS-specific antibody (SC-30, Santa Cruz Biotechnology), which was detected with an HRP-coupled anti-mouse secondary antibody using chemiluminescence on a Bio-Rad Chemidoc MP imaging instrument.
To mimic this in vitro, we devised an in vitro translation setup producing either wild-type or mutant KRAS (G12V, G12C, G12D or G13D) in the presence of biotinylated RAS-targeting pept-ins. This allowed us to perform a streptavidin pull-down to capture the biotinylated pept-ins from the translation reaction and perform SDS-PAGE and Western blotting to probe the pulled-down fraction for the presence of KRAS. The biotinylated version of pept-in 04-004-N001, i.e. 04-004-N011, which harbours an APR window sequence derived from a wild-type APR, is predicted to target all RAS proteins independently from their mutation status.

KRAS G13D mutant = biological target: T3, KRAS G13D mutant (Homo sapiens, UniProt P01116, G13D); experiment: In vitro translation assay with streptavidin pull-down, KRAS G13D; type: binding; settings: 10 μM biotinylated pept-in, Western blot
T3 construct: made in house; host or cells: cell-free: PURExpress In Vitro Protein Synthesis Kit (New England Biolabs)
Method: as §1

KRAS G12D mutant = biological target: T4, KRAS G12D mutant (Homo sapiens, UniProt P01116, G12D); experiment: In vitro translation assay with streptavidin pull-down, KRAS G12D; type: binding; settings: 10 μM biotinylated pept-in, Western blot
T4 construct: made in house; host or cells: cell-free: PURExpress In Vitro Protein Synthesis Kit (New England Biolabs)
Method: as §1

[1] = biological target: T5, mCherry-tagged KRAS G12V in HeLa cells (Homo sapiens, UniProt P01116, G12V); experiment: Cellular fluorescent imaging in HeLa cells overexpressing mCherry-tagged KRAS G12V; type: cell-based; settings: 75 min after treatment
T5 construct: expressed in transfected cells; host or cells: HeLa cells transduced with lentiviral particles
Method: Fluorescent cellular imaging was performed using HeLa cells that were transduced with lentiviral particles carrying a construct expressing KRAS G12V labeled N-terminally with mCherry. Cells were seeded in a black Gclear® Cellstar® F-bottom 96-well plates (Greiner) in 100 μL full growth medium. […] Next, cells were fixed, washed and counterstained with the nuclear dye NucBlue™ (containing Hoechst 33342). Images were captured on a Leica confocal microscope.
To complement the co-immunoprecipitation approach, we also used a cellular imaging approach to show target engagement. To this end, we generated a HeLa cell line overexpressing mCherry-tagged KRAS G12V and FITC-labelled versions of the RAS-targeting pept-ins.

[2] = test system: SW620 human KRAS G12V colorectal cancer xenograft; experiment: In vivo SW620 xenograft model; parameters: species or system mouse; settings: three times per week
Method: Female NCr nu/nu mice (8 to 12 weeks) were inoculated with 1×10^6 SW620 tumor cells in 50% Matrigel subcutaneously in the hind flank. The cell Injection Volume was 0.1 mL/mouse. When tumors reached an average size of 100-150 mm^3 a pair match was performed, and treatment started. Group sizes were N=6 for the non-treated group, N=5 for the vehicle groups and N=8 for the pept-in and positive control groups. Tumor growth was monitored by caliper measurement twice per week. Model response was monitored by Irinotecan dosed once per week at 100 mg/kg intraperitoneally for 3 weeks.
To assess whether the RAS-targeting pept-ins are able to attenuate growth of KRAS G12V-driven tumors in vivo, a subcutaneous xenograft model of human KRAS G12V colorectal cancer (SW620) was used. Once the tumors reached 100-150 mm^3 in size, pept-ins were administered directly into the tumor mass by intratumoral injection three times per week during two weeks at two different doses (20 μg and 200 μg).

[3] = test system: NCI-H441 spheroid cultures; experiment: Single-dose viability screen on NCI-H441 suspension spheroid cultures (3D, CellTiter Glo 3D); type: cell-based, human; settings: NCI-H441 spheroids, single dose 25 μM, 5 days
Method: For the single-dose viability screen on spheroid cultures, 1000 cells were seeded per well in black Ultra-Low Attachment (ULA) round-bottom 96-well plates (Corning) in 75 μL full growth medium. The day after seeding, spheroids were treated by addition of 50 μl of full growth medium containing the indicated test compounds so that the final concentration after adding was 25 μM. Technical duplicates were included for all experimental pept-in conditions 5 days after treatment viability was assessed using the CellTiter Glo 3D reagent (Promega) according to the manufacturer's instructions, with the following adaptation: 80 μL of reagent was added per well. Readout was performed on a Clariostar plate reader (BMG). […]
As previous reports have shown that adherent growth of KRAS mutant cells lines might attenuate their sensitivity to KRAS inhibition or knockdown (Fujita-Sato et al. Cancer Res. 2015, vol. 75, 2851-62; Patricelli et al. Cancer Discov. 2016, vol. 6, 316-29; Vartanian et al. J Biol Chem. 2013, vol. 288, 2403-13), we complemented the screen on adherently growing NCI-H441 cells with a screen on suspension spheroid cultures of the same cell line. […] Viability of the spheroid cultures was determined after 5 days of exposure using the CellTiter Glo 3D reagent from Promega. […]

[4] = biological target: T6, KRAS of NCI-H441 lung adenocarcinoma cells (KRAS G12V mutant) (human, UniProt P01116 1-186); experiment: cell-based or functional assay
[5] = biological target: T6, KRAS of NCI-H441 lung adenocarcinoma …; experiment: cell-based or functional assay; remark: listed apart in the source

Row | Molecule | pull-down of KRAS G12V (G12V mutant KRAS) | IC50 on viability of adherently growing NCI-H441 cells (CellTiter Glo, 3 days) [4] [µM] | Normalized viability NCI-H441 4 days of exposure to 25 µM (%) [5] [%] | other results
1 | 04-004-N011: biotinylated version of pept-in 04-004-N001 (KLSVFAIKGSKLSVFAIK; also: biotinylated version of 04-004-N001) | efficient pull-down | – | – | pull-down of KRAS G12C (G12C mutant KRAS): efficient pull-down; binding to KRAS G13D (KRAS G13D mutant): less efficient; binding to KRAS G12D (KRAS G12D mutant): less efficient
2 | 04-006-N007: biotinylated version of a biologically active pept-in harbouring an APR window containing the G12V mutant site (04-006 series) (KVVVGAVKGSKVVVGAVK; also: biotinylated version) | notable pull-down was only observed for the G12V mutant KRAS | – | – | –
3 | 04-015-N026: biotinylated version of a biologically active pept-in harbouring an APR window containing the G12V mutant site (04-015 series) (KVVVGAVGKGSKVVVGAVGK; also: biotinylated version) | notable pull-down | – | – | pull-down of KRAS G12C (G12C mutant KRAS): notable pull-down
4 | 04-015-N032: RAS-targeting FITC-labelled version of pept-in 04-015-N001 (KVVVGAVGKGSKVVVGAVGK; also: FITC-labelled version of 04-015-N001) | – | – | – | association with mCherry-labelled KRAS [1]: associates with mCherry-labelled KRAS
5 | 04-033-N003: biotinylated version of a biologically active pept-in harbouring an APR window containing the G12V mutant site (04-033 series) (KVVVGAVGVGKGSKVVVGAVGVGK; also: biotinylated version) | notable pull-down was only observed for the G12V mutant KRAS | – | – | –
6 | CC(=O)N[C@@H](CCCCN)C(=O)N[C@H](C(=O)N[C@H](C(=O)N[C@H](C(=O)NCC(=O)N[C@@H](C)C(=O)N[C@H](C(=O)NCC(=O)N[C@@H](CCCCN)C(=O)NCC(=O)N[C@@H](CO)C(=O)N[C@@H](CCCCN)C(=O)N[C@H](C(=O)N[C@H](C(=O)N[C@H](C(=O)NCC(=O)N[C@@H](C)C(=O)N[C@H](C(=O)NCC(=O)N[C@@H](CCCCN)C(N)=O)C(C)C)C(C)C)C(C)C)C(C)C)C(C)C)C(C)C)C(C)C)C(C)C [04-015-N001] | – | – | – | reduction in average tumor volume at day 22 ([2]; 20 μg intratumoral): significant reduction in average tumor volume; reduction in average tumor volume at day 22 ([2]; 200 μg intratumoral): significant reduction in average tumor volume
7 | Ac-KLSVFAIKGSKLSVFAIK-NH2 [04-004-N001] | – | – | – | reduction in average tumor volume at day 22 ([2]; 20 μg intratumoral): only significant for the 200 μg dosing group; reduction in average tumor volume at day 22 ([2]; 200 μg intratumoral): only significant for the 200 μg dosing group
8 | Ac-KLVVVGAVKGSKLVVVGAVK-NH2 [04-014-N001] | – | – | – | activity in the spheroid setting [3]: did not display activity
9 | Ac-KVVVGAVGVGKGSKVVVGAVGVGK-NH2 [04-033-N001] | – | ~10 | 5.2 | –
10 | Ac-KVVVGAVGKGSKVVVGAVGK-NH2 [04-015-N001] | – | ~10 | 23.3 | –
11 | Ac-KLVVVGAVKGSKLVVVGAVK-NH2 [04-014-N001] | – | ~10 | 9.1 | –
12 | Ac-KVVVGAVKGSKVVVGAVK-NH2 [04-006-N001] | – | ~10 | 8.7 | –
13 | Ac-KLSVFAIKGSKLSVFAIK-NH2 [04-004-N001] | – | ~10 | 6.1 | –

— US20230287046A1, “MOLECULES TARGETING PROTEINS” (AELIN THERAPEUTICS, priority 2020, published 2023)
